Measurements as given in patent publication US10172951B2, “Dendrimer based nanodevices for therapeutic and imaging purposes” (priority 2009, dated 2019).
Several values for one entry are separate records, joined by “and”; a condition that tells them apart may be missing. Equal values may be shown once. Numbered stars: 1 amine (or outer) side, 2 acyl side, 3 side chain; on linkers, the order of the positions; unused ones are H or OH. Square brackets hold non-standard residues; d marks the D form. Peptide text beside a SMILES is read from it. γGlu = O=C(O)[C@H](CCC(=O)[*:2])N[*:1]

Experiments:
Solubility in PBS/H2O = format: physicochemical
[1] = Inhibition of GSH depletion by PEG-NAC conjugates; format: cell-based; conditions: equimolar NAC 0.5 mM
[2] = In vitro NAC release from 6-Arm and 8-Arm PEG-S-S-NAC conjugates in PBS with GSH; format: physicochemical; conditions: intracellular GSH concentration (2 and 10 mM), within 2 hours
Method: The in vitro release of NAC from the 6-Arm-PEG-S—S-NAC and 8-Arm-PEG-S—S-NAC conjugates was performed in PBS (pH=7.4) at 37° C. Appropriate amounts of PEG-S—S-NAC conjugate were dissolved in release media (PBS buffered) to form a solution of 1 mg/ml into eppendorf tube and GSH was added to the conjugates to form 10 mM, 2 mM, or 2 μM concentrations and to initiate the release of NAC. All samples were run as triplicates for statistical analysis. As control samples, conjugates were analyzed in PBS buffered media in the absence of reducing agents. The solutions were kept at 37° C. and stirred continuously. At predetermined time intervals, 30 μL of samples were withdrawn and immediately analyzed release of NAC and GS-NAC with RP-HPLC and the concentrations of analytes were determined by using appropriate calibrations prepared under same conditions.

BV-2 cells = experiment: TNF-α release assay (ELISA), PEG-NAC conjugates; format: cell-based, mouse; conditions: 5 mM
Method: (A) BV-2 cells (passage 22) were co-treated with 100 ng/mL of LPS and the indicated concentration of NAC, 6-Arm-PEG-S—S-NAC conjugate (1) and its correspond 6-Arm-PEG-SH for 72 hours (B) BV-2 cells were co-treated with 100 ng/mL of LPS and the indicated concentration of NAC, 8-Arm-PEG-S—S-NAC conjugate (3) and its correspond PEG for 72 hours. Three samples were in each group. TNF-α in culture medium was measured using mouse TNF-α ELISA Kit.
The procedure for cell culture and drug treatment was the same as described in an earlier example. TNF-α secretion was measured using an ELISA Kit according to the manufacturer's instruction. In brief, 50 μL of supernatant from each sample was added in 96-well ELISA plates. Biotinylated antibody reagent was applied to each well and incubated the plate at room temperature for 2 hours. After washing the plate with PBS-Tween 20, diluted streptavidin-HRP was added, and the plate was incubated at room temperature for 30 min. After washing the plate, premixed TMB substrate solution was added. The plate was developed in the dark for 30 min, and read at 450 nm using a microplate reader. The concentration of TNF-α was calculated using murine rTNF-α as standard.

microglial cells = experiment: Toxicity of PEG-NAC conjugates to microglial cells; format: cell-based; conditions: 0.008-0.8 mM
[3] = system: neuroinflammation in newborn rabbit model of cerebral palsy; experiment: In vivo efficacy in newborn rabbit model of cerebral palsy (maternal endotoxin)
Method: New Zealand White rabbits (CoVance Research Products Inc., Kalamazoo, Mich.) with timed pregnancies confirmed with breeders (having a history of delivering 7-11 kits per litter) underwent laparotomy under general anesthesia (2-3% isoflurane by mask) on gestational day 28 (E28, term pregnancy is 31-32 days). 1 mL of saline for the control group (n=6) or 1 mL of saline containing 20 μg/kg of LPS (Escherichia coli serotype O127: B8 from Sigma-Aldrich, St Louis, Mo.) for the endotoxin group (n=6), was equally divided and injected into the uterine wall using a 27 gauge needle between the fetuses taking care not to enter the amniotic sac. This ensured that all the kits were exposed to the same amount of endotoxin. 0.5% NaHCO3 was infused at end of surgery and additional dose NaHCO3 was given at 2 hour after surgery according blood gas.
The following animal groups were enrolled and used for this example: • Group 1: Pups exposed to 20μ/kg E. Coli LPS in utero treated with saline I.V. (200 ul), Observe for 5 days (N=5-7) • Group 2: Pups exposed to 20μ/kg E. Coli LPS in utero treated with NAC I.V. (200 ul), single dose 10 mg/kg. Observe for 5 days (N=5-7) • Group 3: Pups exposed to 20μ/kg E. Coli LPS in utero treated with NAC I.V. (200 ul), single dose 100 mg/kg. Observe for 5 days (N=5-7) • Group 4: Pups exposed to 20μ/kg E. Coli LPS in utero treated with G4-PAMAM-S—S-NAC I.V (200 ul), single dose 1 mg/kg (based on preliminary data). […]
All live postnatal day 1 (PND1) control and endotoxin kits from four consecutive litters in each group were tested to reduce the risk of selection bias. The rabbit kits were assessed and scored for behavioral testing, as described by Derrick et al. Briefly, the kits were videotaped and scored on a scale of 0 (worst) to 3 (best) by two blinded observers for (1) posture (ability to maintain prone posture), (2) righting reflex (ability to right itself from supine to prone position for 10 attempts), (3) activity and locomotion on a flat surface (assessed by grading the quality, intensity, and duration of spontaneous movement of the head and front and back legs), (4) ability to move in a straight line and in circles, (5) coordination of suck and swallow assessed by feeding the rabbit kits artificially with formula from a syringe with a dropper, and (6) ability to move head during feeding (scored from 0-3 in which 0 is no movement of head and 3 is forceful movement of head and body). The tone on passive flexion and extension was assessed using the scoring based on the Ashworth scale, as described by Derrick et al, in which 0 indicated no increase in tone and 4 indicated the limb was rigid in flexion or extension. […]
secondary to maternal endotoxin administration were treated with a single dose of either PBS, NAC 100mg/kg, D-NAC 1 mg/kg or 10mg/kg, or dendrimer alone on day 1of life (31 days post-conception). […] Animals were video-taped for 10 minutes and were scored by two observers in a blinded manner. Scores were based on the maximum number of steps taken without falls (scored from 0-4) and number of hops without falls (scored from 0-4) in one minute of continuous activity. […]

[4] = Dynamic light scattering size; format: physicochemical; conditions: PBS pH 7.4, 37° C.
Method: Dynamic light scattering (DLS) analyses were performed using a Malvern Instruments Zetasizer Nano ZEN3600 instrument (Westborough, Mass.) with reproducibility being verified by collection and comparison of sequential measurements. G4-PAMAM-O-GABA-NH-FITC and G4-PAMAM-O-GABA-NH-Alexa conjugate samples were prepared using PBS pH=7.4. DLS measurements were performed at a 90° scattering angle at 37° C. Z-average sizes of three sequential measurements were collected and analyzed.

[5] = Stability of fluorophore-dendrimer conjugates in PBS (HPLC); format: physicochemical; conditions: PBS (pH 7.4), after 72 hours
From the text: The FITC-labeled compound (G4-PAMAM-O-GABA-NH-FITC) was purified by dialysis (membrane cutoff 1000 Da) against DMSO in dark by replacing DMSO, to remove un-reacted compounds. Purity of G4-PAMAM-O-GABA-NH-FITC conjugate was confirmed by HPLC using fluorescent detector (λex=495 nm/λem=521 nm).
G4-PAMAM-O-GABA-NH2 dendrimer was reacted with the Alexa 488 carboxylic acid succinimidyl ester (Scheme-6). The N-succinimidyl activated ester of Alexa 488 couples to the terminal primary amines to yield amide-linked G4-PAMAM-O-GABA-Alexa conjugate. The formation of conjugate was confirmed by HPLC (FIG. 89) using florescent detector (λex=495 nm/λem=521 nm). […] The absence of any other peak in chromatogram after dialysis of product confirms the absence of free alexa. […] The dendrimer alexa conjugate was prepared for enhanced histological visualization of samples as confocal imaging causes quenching and also to match with the intensities of other alexa conjugated secondary antibodies.

[6] = Transmembrane transport and permeability, amnion; format: in vitro ADME, human
From the text: (§1) All human fetal membrane specimens were obtained at the time of cesarean section for obstetrical indications. The fetal membrane comprising chorioamniotic membrane (intact membranous tissue containing both amnion and chorion together) (n=7) and amnion (n=7) and chorion (n=7) were separately procured (size 6×9″). Each membrane was cut into 9 pieces for the 9 sets of diffusion chamber. The fresh membranes were collected immediately after the delivery, washed with PBS to remove the blood and stored in PBS until (˜1 h at 4° C.) it was mounted on the diffusion chamber (37±0.5° C.). Excess membranes were trimmed. The diffusion experiments were performed for 48 hours by mounting the membrane in the chamber to study the transport across the membranes. In all the experiments with chorioamniotic membrane the choriodecidua (maternal side) was placed facing the donor chamber and the amnionic epithelium (fetal side) was facing the receptor chamber. The chorion and amnion were mechanically separated by gently pulling the two membranes apart. For the chorion, the side attached to amnion was placed facing the receptor chamber and for the amnion the side attached to the chorion was placed facing the donor chamber in the diffusion apparatus. For histological evaluation, the tissue samples were collected at 0.5, 1, 2, 3 and 4 hours for and were fixed in 10% formalin overnight. Further, some sections were analyzed by hematoxylin and eosin (H & E) staining. The membrane thickness was measured using the Mitutoyo Super Caliper by placing the respective membranes between the two glass slides and subtracting the thickness of the glass slides without the membrane.
(§2) Permeation experiments were carried out using a two-chamber (donor and receptor) side-by-side Permegear diffusion cell with a chamber volume of 3 mL and with a diameter of 13 mm and a diffusional area of 1.32 cm^2. The fetal membranes (chorion and amnion together, amnion and chorion) each (n=9) were mounted between two halves of the donor and receptor cell (9 sets), which were further clamped together and sealed tightly with the rubber packing at the end of each glass chamber. The receptor cell (volume 3 mL) was filled with sterile PBS (pH 7.4). The donor cell (volume 3 mL) was filled with solution of compounds whose permeability was evaluated. […] The system was maintained at 37° C. by using a circulating water bath and a jacket surrounding each cell. The donor and receiving medium was continuously stirred (600 rpm) with a magnetic bar to avoid stagnant aqueous diffusion layer effects. Aliquots (200 μL) were collected from the receptor cell every 30 min till first 6 hours and at predetermined intervals thereafter and replaced with equal volume of PBS to maintain sink conditions throughout the study. […] The concentration of compound in the receptor medium was determined using a Molecular Devices SpectroMax M2, UV visible and Fluorescent plate reader at ex 495/em 521. The cumulative amount of compound transported across the membrane in the receptor cell was determined using a calibration curve (a transport of 50% corresponds equilibrium achieved). All the experiments were conducted in dark room. All experiments were done in triplicate and the results are reported as mean±STDev.
[formula] To determine the permeability coefficient, P, a plot of −V/2A ln (1−2Ct/C0) against t was constructed and linear fitting was performed. The slope of the linear portion of the graph yields a permeability coefficient. The thickness of the chorioamnion, chorion and amnion was 0.22 mm, 0.16 mm and 0.05 mm respectively (n=7), as measured with the help of Mitutoyo Super Caliper. […] The FIGS. 93A-C and FIG. 94 show the plots used for calculation of the permeability and the correlation in all the cases ranged from 0.96 to 0.99.

[7] = Transmembrane transport and permeability, chorion; format: in vitro ADME, human
From the text: as §1, §2
(§3) [formula] […] The thickness of the chorioamnion, chorion and amnion was 0.22 mm, 0.16 mm and 0.05 mm respectively (n=7), as measured with the help of Mitutoyo Super Caliper. […]

[8] = Transmembrane transport and permeability, chorioamnion; format: in vitro ADME, human
From the text: as §1
Permeation experiments were carried out using a two-chamber (donor and receptor) side-by-side Permegear diffusion cell with a chamber volume of 3 mL and with a diameter of 13 mm and a diffusional area of 1.32 cm^2. The fetal membranes (chorion and amnion together, amnion and chorion) each (n=9) were mounted between two halves of the donor and receptor cell (9 sets), which were further clamped together and sealed tightly with the rubber packing at the end of each glass chamber. […] The donor cell (volume 3 mL) was filled with solution of compounds whose permeability was evaluated. […] The concentration of compound in the receptor medium was determined using a Molecular Devices SpectroMax M2, UV visible and Fluorescent plate reader at ex 495/em 521. The cumulative amount of compound transported across the membrane in the receptor cell was determined using a calibration curve (a transport of 50% corresponds equilibrium achieved). […]
as §3

CC(=O)N[C@@H](CCC(=O)N[C@@H](CS)C(=O)NCC(=O)O)C(=O)O [GS-S-NAC, N-Acetyl-glutathione] (Ac-[γGlu]-Cys-Gly-OH)
Solubility in PBS/H2O (Solubility in PBS/H2O): Soluble

6 Arm-PEG-S—S-NAC Conjugate [6-arm-PEG-S—S-NAC]
inhibition of GSH depletion versus free NAC [1]: more efficient | NAC released [2]: 74% | inhibition of TNF-α production (BV-2 cells): 70% | toxicity to the microglial cells (microglial cells): nontoxic

PAMAM-O-GABA-NH—CO-Ethyl-S—S-NAC [Dendrimer-NAC]
suppression of NF-κB ([3]; 1 mg/kg single dose on PND-1, hippocampus PND 5): as effective as 100 mg/kg of NAC alone | suppression of IL-6 relative to free drug ([3]; hippocampus): 10-100 times | suppression of TNF-alpha mRNA expression relative to free drug ([3]; hippocampus, 5 days of age): 10-100 times | effect on myelination compared to the drug alone ([3]; rabbit, in vivo): increased myelination | efficacy relative to free NAC ([3]; single i.v. administration): ≤ 100 times

8 Arm-PEG-S—S-NAC Conjugate [8-arm-PEG-S—S-NAC]
inhibition of GSH depletion versus free NAC [1]: more efficient | NAC released [2]: 74% | inhibition of TNF-α production (BV-2 cells): 70% | toxicity to the microglial cells (microglial cells): nontoxic

G4-PAMAM-O-GABA-NH-Alexa-488
size (DLS) [4]: 5.6 nm | stability of the conjugate [5]: alexa was not released from the conjugate

G4-PAMAM-O-GABA-NH-FITC [D-FITC]
size (DLS) [4]: 5.4 nm | Permeability coefficient, Amnion ([6]; 0.6 mg/mL): 1.86×10^−8 cm^2/s | Permeability coefficient, Amnion ([6]; 3 mg/mL): 2.08×10^−7 cm^2/s | transport across amnion ([6]; in 5 hours): ≤ 3% | transport across amnion ([6]; in 20 hours, 0.6 mg/mL): 22% | Permeability coefficient, Chorion ([7]; 0.6 mg/mL): 2.94×10^−8 cm^2/s | Permeability coefficient, Chorion ([7]; 3 mg/mL): 2.94×10^−8 cm^2/s | transport across chorion ([7]; in 5 hours): ≤ 3% | transport across chorion ([7]; in 20 hours, 0.6 mg/mL, listed as G4-PAMAM dendrimer): 10% and ~10.5% | Permeability coefficient, Chorioamnion ([8]; 0.6 mg/mL): 7.5×10^−8 cm^2/s | Permeability coefficient, Chorioamnion ([8]; 3 mg/mL): 5.8×10^−8 cm^2/s | transport across chorioamnion ([8]; in 5 hours): ≤ 3% | stability of the conjugate [5]: FITC was not released from the conjugate
